Experimental data taken from patent publication US20210147513A1 (published 2021).

Experiments:
[1] = molecular target: S protein of live MERS-CoV EMC/2012 (MERS-CoV); assay: cell-based or functional assay
[2] = molecular target: T1, S protein of live MERS-CoV EMC/2012 (MERS-CoV); assay: cell-based or functional assay
T1 chain: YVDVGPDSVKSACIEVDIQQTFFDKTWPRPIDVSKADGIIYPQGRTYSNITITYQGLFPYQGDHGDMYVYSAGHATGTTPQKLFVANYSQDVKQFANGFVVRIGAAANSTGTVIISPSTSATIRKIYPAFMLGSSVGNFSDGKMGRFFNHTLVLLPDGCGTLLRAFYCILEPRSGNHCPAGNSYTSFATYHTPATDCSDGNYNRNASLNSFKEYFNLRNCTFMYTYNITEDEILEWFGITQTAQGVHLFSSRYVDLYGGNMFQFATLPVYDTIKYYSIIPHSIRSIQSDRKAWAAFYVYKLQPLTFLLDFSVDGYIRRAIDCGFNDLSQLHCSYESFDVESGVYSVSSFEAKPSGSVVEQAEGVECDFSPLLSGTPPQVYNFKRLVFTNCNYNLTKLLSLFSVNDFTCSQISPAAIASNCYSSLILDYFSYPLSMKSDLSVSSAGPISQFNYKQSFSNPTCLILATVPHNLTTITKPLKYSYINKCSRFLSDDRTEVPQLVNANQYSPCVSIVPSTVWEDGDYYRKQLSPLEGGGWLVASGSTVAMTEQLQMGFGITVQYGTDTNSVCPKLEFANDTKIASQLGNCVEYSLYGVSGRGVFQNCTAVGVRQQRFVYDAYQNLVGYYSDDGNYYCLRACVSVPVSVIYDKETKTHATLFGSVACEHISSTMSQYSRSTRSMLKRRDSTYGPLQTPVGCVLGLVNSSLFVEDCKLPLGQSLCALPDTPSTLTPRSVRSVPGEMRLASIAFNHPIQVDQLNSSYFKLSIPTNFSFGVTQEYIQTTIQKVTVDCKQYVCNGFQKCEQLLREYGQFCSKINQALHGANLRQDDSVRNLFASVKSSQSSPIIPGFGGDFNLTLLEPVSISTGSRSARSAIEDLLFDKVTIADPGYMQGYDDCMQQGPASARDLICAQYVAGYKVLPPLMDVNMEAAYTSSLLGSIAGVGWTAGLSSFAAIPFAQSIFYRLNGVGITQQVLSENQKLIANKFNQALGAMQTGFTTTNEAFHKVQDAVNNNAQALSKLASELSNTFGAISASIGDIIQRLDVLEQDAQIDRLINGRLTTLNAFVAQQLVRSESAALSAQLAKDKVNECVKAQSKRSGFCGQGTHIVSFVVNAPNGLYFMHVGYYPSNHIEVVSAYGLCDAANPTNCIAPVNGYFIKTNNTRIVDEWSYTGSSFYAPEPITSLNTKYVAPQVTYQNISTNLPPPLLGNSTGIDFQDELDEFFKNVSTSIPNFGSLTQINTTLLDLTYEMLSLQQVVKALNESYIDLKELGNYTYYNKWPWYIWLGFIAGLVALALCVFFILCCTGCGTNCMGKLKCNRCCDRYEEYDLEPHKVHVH

B1: 3A1 scFvFc (scFv, V domains shown)
VH: QVQLVQSGAEVKKPGSSVKVSCKASGGTFSSYAVSWVRQAPGQGLEWVGRIIPIFGKANYAQKFQGRVTITADKSTSTAYMELSSLRPEDTAVYYCARDQGISANFKDAFDIWGQGTTVTVSS
VL: ETTLTQSPATLSVSPGERATLSCRASESVGSNLAWYQQKPGQAPSLLIYGASTRATGIPDRFSGSGSGTDFTLTISSLQSEDFAAYYCQQYNNWPLTFGPGTKVEIK
IC50 (µg/ml), PRNT50 live virus, wt. [1]: 1.46 µg/mL

B2: 3A1 IgG1 (antibody, V domains shown)
VH: QVQLVQSGAEVKKPGSSVKVSCKASGGTFSSYAVSWVRQAPGQGLEWVGRIIPIFGKANYAQKFQGRVTITADKSTSTAYMELSSLRPEDTAVYYCARDQGISANFKDAFDIWGQGTTVTVSS
VL: ETTLTQSPATLSVSPGERATLSCRASESVGSNLAWYQQKPGQAPSLLIYGASTRATGIPDRFSGSGSGTDFTLTISSLQSEDFAAYYCQQYNNWPLTFGPGTKVEIK
IC50 (µg/ml), PRNT50 live virus, wt. [1]: 4.5 µg/mL

B3: 1F8 IgG1 (antibody, V domains shown)
VH: EVQLVQSGAEVKEPGSSVKVSCKASGGTFGSYAINWVRQAPGQRLEWMGWIDAANGNTKYSQKFQGRVTITGDTSASTAYMELSSLRSEDTAVYYCARDRWMTTRAFDIWGQGTMVTVSS
VL: QPVLTQPPSASGTPGQRVTISCSGSSSNIGSNYVFWYQQLPGMAPKLLISRNNQRPSGVPDRFSGSKSGTSASLAISGPQSEDEADYYCAAWDDSLRGPVFGGGTRVTVL
IC50 (µg/ml), PRNT50 live virus, wt. [1]: 4.05 µg/mL

B4: 3B12 scFvFc (scFv, V domains shown)
VH: QVQLVQSGAEVKKPGSSVKVSCKASGGTFSSYAISWVRQAPGQGLEWMGGIIPIFGTANYAQKFQGRVTITADKSTSTAYMELSSLRSEDTAVYYCARASYCSTTSCASGAFDIWGQGTLVTVSS
VL: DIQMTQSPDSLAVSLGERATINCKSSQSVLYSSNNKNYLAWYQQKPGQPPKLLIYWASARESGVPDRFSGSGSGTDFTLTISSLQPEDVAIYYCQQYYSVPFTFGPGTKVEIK
IC50 (µg/ml), PRNT50 live virus, wt. [2]: 1.25 µg/mL

B5: 3B11 IgG1 (antibody, V domains shown)
VH: QVQLVQSGAEVKKPGSSVKVSCKASGGTFSSYAISWVRQAPGQGLEWMGGIIPIFGTANYAQKFQGRVTITADKSTSTAYMELSSLRSEDTAVYYCARVGYCSSTSCHIGAFDIWGQGTTVTVSS
VL: ETTLTQSPGTLSLSPGERATLSCRASQSVSSSIAWYQQKPGQAPRLLMFDSSTRATGIPDRFSGSGSGTDFTLNISSLEPEDFAVYYCQQYSSSPYTFGQGTKLEIK
IC50 (µg/ml), PRNT50 live virus, wt. [1]: 3.5 µg/mL
